B1: Histone-lysine N-methyltransferase PRDM16 (Homo sapiens), Q9HAZ2-4 (parent)
chain: MCQISEQIYYKVIKDIEPGEELLVHVKEGVYPLGTVPPGLDEEPTFRCDECDELFQSKLDLRRHKKYTCGSVGAALYEGLAEELKPEGLGGGSGQAHECKDCERMFPNKYSLEQHMVIHTEEREYKCDQCPKAFNWKSNLIRHQMSHDSGKRFECENCVKVFTDPSNLQRHIRSQHVGARAHACPDCGKTFATSSGLKQHKHIHSTVKPFICEVCHKSYTQFSNLCRHKRMHADCRTQIKCKDCGQMFSTTSSLNKHRRFCEGKNHYTPGGIFAPGLPLTPSPMMDKAKPSPSLNHASLGFNEYFPSRPHPGSLPFSTAPPTFPALTPGFPGIFPPSLYPRPPLLPPTSLLKSPLNHTQDAKLPSPLGNPALPLVSAVSNSSQGTTAAAGPEEKFESRLEDSCVEKLKTRSSDMSDGSDFEDVNTTTGTDLDTTTGTGSDLDSDVDSDPDKDKGKGKSAEGQPKFGGGLAPPGAPNSVAEVPVFYSQHSFFPPPDEQLLTATGAAGDSIKAIASIAEKYFGPGFMGMQEKKLGSLPYHSAFPFQFLPNFPHSLYPFTDRALAHNLLVKAEPKSPRDALKVGGPSAECPFDLTTKPKDVKPILPMPKGPSAPASGEEQPLDLSIGSRARASQNGGGREPRKNHVYGERKLGAGEGLPQVCPARMPQQPPLHYAKPSPFFMDPIYSRVEKRKVTDPVGALKEKYLRPSPLLFHPQMSAIETMTEKLESFAAMKADSGSSLQPLPHHPFNFRSPPPTLSDPILRKGKERYTCRYCGKIFPRSANLTRHLRTHTGEQPYRCKYCDRSFSISSNLQRHVRNIHNKEKPFKCHLCNRCFGQQTNLDRHLKKHEHENAPVSQHPGVLTNHLGTSASSPTSESDNHALLDEKEDSYFSEIRNFIANSEMNQASTRTEKRADMQIVDGSAQCPGLASEKQEDVEEEDDDDLEEDDEDSLAGKSQDDTVSPAPEPQAAYEDEEDEEPAASLAVGFDHTRRCAEDHEGGLLALEPMPTFGKGLDLRRAAEEAFEVKDVLNSTLDSEALKHTLCRQAKNQAYAMMLSLSEDTPLHTPSQGSLDAWLKVTGATSESGAFHPINHL

Legend:
[1] = variants of: B1; conditions: with ctbp2_mouse Ctbp2, P56546
[2] = variants of: B1; conditions: with ctbp2_mouse Ctbp2, P56546; remark: listed apart in the source
[3] = variants of: B1; conditions: with hdac2_chick HDAC2, P56519
Chain of hdac2_chick HDAC2, P56519 (P56519 whole entry): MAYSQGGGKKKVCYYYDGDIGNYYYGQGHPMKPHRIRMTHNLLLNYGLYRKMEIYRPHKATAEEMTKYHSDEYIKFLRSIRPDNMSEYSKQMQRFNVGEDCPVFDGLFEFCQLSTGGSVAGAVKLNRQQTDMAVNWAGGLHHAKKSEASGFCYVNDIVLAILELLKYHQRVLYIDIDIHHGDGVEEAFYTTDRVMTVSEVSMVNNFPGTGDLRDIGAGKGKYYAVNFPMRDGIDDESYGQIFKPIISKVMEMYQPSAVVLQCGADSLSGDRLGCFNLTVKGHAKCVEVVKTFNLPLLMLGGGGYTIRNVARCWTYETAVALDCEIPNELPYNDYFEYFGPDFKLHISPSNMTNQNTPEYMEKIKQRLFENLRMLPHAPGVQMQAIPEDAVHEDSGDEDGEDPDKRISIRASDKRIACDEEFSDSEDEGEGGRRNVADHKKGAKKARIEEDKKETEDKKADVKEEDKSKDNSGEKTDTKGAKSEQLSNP

Chain of ctbp2_mouse Ctbp2, P56546 (P56546 whole entry): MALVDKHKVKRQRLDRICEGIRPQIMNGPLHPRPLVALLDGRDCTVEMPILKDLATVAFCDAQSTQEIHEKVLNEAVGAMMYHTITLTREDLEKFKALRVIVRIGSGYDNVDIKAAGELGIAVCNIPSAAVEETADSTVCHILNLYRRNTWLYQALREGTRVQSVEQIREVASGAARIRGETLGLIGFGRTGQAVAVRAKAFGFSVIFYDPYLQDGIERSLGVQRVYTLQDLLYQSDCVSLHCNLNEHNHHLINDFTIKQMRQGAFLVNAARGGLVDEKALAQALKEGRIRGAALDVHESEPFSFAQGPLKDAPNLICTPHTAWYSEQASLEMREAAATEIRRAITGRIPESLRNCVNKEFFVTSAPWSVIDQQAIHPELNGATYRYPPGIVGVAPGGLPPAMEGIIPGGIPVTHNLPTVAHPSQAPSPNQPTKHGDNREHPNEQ

| effect of a mutation on the interaction [1] | effect of a mutation on the interaction [2] | effect of a mutation on the interaction [3] | Variant |
| --- | --- | --- | --- |
| disrupting interaction | disrupting interaction | decreasing interaction | D590A;L591S;D620A;L621S |
|  |  | decreasing interaction | K568R;D590A;L591S;L619S;D620A |
|  |  | decreasing interaction | K568R |
